According to US20110065647A1 (BIOSEARCH 2007, published 2011):
Ends that are not written are not given here.

Assays:
[1] = biological target: rNaV1.3 channels (rat, UniProt P08104 1-1951); experiment: cell-based or functional assay
[2] = biological target: rNaV1.8 channels (rat, UniProt Q62968 1-1956); experiment: cell-based or functional assay
Sequence of rNaV1.8 channels (Q62968 whole entry): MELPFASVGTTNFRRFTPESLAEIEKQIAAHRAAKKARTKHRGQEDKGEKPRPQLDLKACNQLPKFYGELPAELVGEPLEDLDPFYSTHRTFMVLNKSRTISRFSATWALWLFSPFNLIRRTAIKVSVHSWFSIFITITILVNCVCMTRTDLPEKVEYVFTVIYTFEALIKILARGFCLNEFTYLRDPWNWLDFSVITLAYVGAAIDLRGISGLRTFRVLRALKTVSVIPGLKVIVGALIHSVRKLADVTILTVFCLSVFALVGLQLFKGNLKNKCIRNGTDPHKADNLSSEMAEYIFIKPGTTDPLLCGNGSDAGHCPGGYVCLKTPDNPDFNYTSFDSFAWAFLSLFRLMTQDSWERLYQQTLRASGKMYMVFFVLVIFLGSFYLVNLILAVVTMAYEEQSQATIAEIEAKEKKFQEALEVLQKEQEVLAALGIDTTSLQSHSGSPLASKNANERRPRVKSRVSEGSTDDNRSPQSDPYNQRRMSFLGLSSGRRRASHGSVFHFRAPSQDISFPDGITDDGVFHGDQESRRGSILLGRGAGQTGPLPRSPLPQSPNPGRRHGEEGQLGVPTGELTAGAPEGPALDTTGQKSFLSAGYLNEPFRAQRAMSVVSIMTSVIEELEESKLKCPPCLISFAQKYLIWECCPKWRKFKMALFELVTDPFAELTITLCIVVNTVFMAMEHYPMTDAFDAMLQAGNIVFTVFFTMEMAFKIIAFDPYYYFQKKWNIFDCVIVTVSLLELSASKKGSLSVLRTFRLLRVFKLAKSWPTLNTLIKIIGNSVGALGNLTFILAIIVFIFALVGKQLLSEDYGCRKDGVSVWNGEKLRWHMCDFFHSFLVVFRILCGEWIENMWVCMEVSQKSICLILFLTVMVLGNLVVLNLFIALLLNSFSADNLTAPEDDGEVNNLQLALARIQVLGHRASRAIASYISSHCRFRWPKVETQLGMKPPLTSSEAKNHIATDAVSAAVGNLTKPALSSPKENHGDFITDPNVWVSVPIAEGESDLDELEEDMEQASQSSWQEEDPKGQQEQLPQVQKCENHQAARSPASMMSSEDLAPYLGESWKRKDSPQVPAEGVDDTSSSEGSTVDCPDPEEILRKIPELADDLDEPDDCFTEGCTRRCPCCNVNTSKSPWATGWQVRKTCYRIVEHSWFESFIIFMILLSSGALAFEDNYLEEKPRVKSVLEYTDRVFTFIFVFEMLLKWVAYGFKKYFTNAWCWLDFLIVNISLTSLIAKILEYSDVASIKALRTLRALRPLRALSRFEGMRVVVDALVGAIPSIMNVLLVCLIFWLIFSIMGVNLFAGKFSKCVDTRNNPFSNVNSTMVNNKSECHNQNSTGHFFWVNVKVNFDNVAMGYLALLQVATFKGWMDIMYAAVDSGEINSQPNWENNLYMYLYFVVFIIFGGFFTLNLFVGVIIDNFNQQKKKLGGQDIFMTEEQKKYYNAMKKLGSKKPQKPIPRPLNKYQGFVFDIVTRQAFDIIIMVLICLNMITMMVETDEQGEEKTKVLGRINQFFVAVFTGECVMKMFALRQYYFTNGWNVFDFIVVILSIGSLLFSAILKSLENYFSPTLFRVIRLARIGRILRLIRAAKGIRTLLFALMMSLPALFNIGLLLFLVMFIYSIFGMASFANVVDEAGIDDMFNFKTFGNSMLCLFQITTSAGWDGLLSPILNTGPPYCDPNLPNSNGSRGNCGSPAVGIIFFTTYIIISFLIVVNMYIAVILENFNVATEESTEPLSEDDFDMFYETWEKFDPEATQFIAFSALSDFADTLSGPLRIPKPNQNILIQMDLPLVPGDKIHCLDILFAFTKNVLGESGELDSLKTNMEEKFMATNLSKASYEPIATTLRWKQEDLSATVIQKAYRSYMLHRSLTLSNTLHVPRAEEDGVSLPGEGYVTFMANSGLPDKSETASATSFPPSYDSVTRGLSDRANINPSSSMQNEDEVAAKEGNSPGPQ

Sequence of rNaV1.3 channels (P08104 whole entry): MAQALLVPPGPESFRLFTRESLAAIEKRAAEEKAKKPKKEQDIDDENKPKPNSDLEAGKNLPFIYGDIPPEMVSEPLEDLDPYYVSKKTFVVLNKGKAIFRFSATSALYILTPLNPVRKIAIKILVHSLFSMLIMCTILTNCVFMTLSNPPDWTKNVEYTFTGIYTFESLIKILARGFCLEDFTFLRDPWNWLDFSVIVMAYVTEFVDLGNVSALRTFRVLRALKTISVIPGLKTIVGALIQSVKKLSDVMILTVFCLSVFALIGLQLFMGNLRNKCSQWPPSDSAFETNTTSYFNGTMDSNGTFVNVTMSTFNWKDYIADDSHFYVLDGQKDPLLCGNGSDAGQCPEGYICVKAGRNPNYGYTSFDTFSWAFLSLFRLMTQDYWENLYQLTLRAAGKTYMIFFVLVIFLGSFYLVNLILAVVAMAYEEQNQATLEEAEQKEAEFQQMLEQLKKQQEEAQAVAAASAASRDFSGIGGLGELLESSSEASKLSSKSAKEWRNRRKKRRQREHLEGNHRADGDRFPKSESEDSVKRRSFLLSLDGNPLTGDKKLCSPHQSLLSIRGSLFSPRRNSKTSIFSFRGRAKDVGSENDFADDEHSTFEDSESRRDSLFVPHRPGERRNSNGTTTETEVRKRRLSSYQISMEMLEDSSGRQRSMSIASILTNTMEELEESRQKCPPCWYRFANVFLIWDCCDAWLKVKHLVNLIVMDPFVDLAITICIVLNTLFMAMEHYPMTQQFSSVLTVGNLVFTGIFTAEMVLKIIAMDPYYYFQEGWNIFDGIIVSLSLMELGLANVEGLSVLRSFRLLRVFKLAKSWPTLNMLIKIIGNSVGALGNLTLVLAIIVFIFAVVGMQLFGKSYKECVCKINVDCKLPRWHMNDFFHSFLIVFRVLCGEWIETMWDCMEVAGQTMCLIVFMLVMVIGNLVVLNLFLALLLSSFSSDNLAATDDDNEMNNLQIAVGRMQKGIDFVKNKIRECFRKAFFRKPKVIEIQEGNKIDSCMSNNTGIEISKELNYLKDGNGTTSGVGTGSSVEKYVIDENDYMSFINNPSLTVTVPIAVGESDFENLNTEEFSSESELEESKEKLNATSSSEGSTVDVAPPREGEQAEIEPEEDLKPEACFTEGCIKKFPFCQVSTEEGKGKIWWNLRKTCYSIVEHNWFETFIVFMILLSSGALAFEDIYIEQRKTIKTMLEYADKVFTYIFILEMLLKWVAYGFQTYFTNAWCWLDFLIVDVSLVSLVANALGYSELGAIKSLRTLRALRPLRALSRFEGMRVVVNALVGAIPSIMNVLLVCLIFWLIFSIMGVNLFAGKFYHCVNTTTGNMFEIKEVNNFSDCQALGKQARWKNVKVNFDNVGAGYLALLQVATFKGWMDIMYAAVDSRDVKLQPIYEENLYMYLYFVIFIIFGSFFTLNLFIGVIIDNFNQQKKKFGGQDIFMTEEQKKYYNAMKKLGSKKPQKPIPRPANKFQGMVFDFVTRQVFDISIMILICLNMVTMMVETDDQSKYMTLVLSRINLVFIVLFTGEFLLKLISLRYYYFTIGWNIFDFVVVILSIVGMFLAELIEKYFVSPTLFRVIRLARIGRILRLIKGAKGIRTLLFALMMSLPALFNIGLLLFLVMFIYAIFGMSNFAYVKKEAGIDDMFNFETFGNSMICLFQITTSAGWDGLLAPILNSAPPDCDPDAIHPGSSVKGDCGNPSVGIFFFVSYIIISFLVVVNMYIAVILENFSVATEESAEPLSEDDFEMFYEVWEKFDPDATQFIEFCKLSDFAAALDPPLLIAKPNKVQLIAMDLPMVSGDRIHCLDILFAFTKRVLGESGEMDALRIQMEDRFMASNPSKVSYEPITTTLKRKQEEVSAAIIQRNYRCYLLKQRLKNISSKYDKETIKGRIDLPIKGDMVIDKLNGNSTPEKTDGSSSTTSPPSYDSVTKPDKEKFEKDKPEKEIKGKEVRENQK

Binder	IC50 Nav1.3 (µM); inhibition of channel current, patch clamp [1] [µM]	IC50 Nav1.8 (µM); inhibition of channel current, patch clamp [2] [µM]
DDCLGMFSSCDPDNDKCCEGRKCNRKDKWCKYVL-NH2 (disulfide (positions not given here); not fully specified (bridges); also: three disulphide bridges, probably C1-C4, C2-C5, C3-C6) [Peptide A]	1.75	2.5
YCQEFLWTCDEERKCCGDMVCRLWCKKRL-NH2 (disulfide (positions not given here); not fully specified (bridges); also: three disulphide bridges, probably C1-C4, C2-C5, C3-C6) [Peptide B]	0.23	
ACLGFGEKCNPSNDKCCKSSSLVCSQKHKWCKYGW (disulfide (positions not given here); not fully specified (bridges); also: three disulphide bridges, probably C1-C4, C2-C5, C3-C6) [Peptide C]	1.2	
DCLGWFKGCDPDNDKCCEGYKCNRRDKWCKYKLW (disulfide (positions not given here); not fully specified (bridges); also: three disulphide bridges, probably C1-C4, C2-C5, C3-C6) [Peptide F]	0.13	0.17
